From the RNAGym collection of RNA variant scans (doi:10.1073/pnas.2313332121) come the findings set out here.

First the molecules themselves.
B1: TPR 5TU (parent)
chain: GGAUCUUCUCGAUCUAACAAAAAAGACAAAUCUGCCACAAAGCUUGAGAGCAUCUUCGGAUGCAGAGGCGGCAGCCUUCGGUGGCGCGAUAGCGCCAACGUUCUCAACUAUGACACGCAAAACGCGUGCUCCGUUGAAUGGAGUUUAUCAUG

This sample holds only a part of the variants without activity. Bounds are passed on as bounds.

The variants in this data set derive from B1. The data set is described as follows: polymerase ribozyme fitness, log enrichment relative to wild type (log ratio); higher = more active; in vitro selection for triplet polymerase activity. A digest of the protocol:
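Input and output libraries were sequenced on Illumina after a single in vitro selection round, run in triplicate on PCR-built, transcribed mutant libraries of each subunit of a heterodimeric triplet polymerase ribozyme. Selection annealed libraries to a biotinylated primer, the partner subunit and triplets, incubated them frozen at −7 °C, then gel-excised extended constructs for streptavidin-bead capture and RT-PCR. Genotypes with ≥10 input reads and ≥1 read per output were kept. Fitness is the logarithm, taken in base 2, of genotype enrichment divided by wild-type enrichment, using inverse-variance-weighted replicate averages.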
Regarding GGAUCUUCUCGAUCUAACAAAAAAGACAAAUCUGCCACAACGCUUGAGAGCAUCUUCGGAUGCAGAGGCGGCAGCCUUCGGUGACGCGAUAGCGCCAACGUUCUCAACGAUGACACGCAAAACGCGUGCUCCGUUGAAUGGAGUUUAUCAUG, the “polymerase ribozyme fitness (log ratio)” value was -3.33.
For the variant GGAUAUUCUCGAUCUAACAAACAAGACAAAUCUGCCAAAAAGCUUGAGAGCAUCUUCGGAUGCAGAGGCGACAGCCUUCGGUGGCGCGCUAGCGCCAACGUUCUCAACUAUGACACGCAAAACGCGUGCUCCGUUGAAUGGAGUUUAUCAUG, the “polymerase ribozyme fitness (log ratio)” value was at most -4.2.
The same measure for GGAUCUUCUCGAUCUAACAAAAAAGACAAAUCUGCCACAAAGCUUGAGAGCAUCUUCGGAUUCAGAGGCGGCAGCCUUCGGUGGCGCGAUAGCGCCAACGUUUUCAACUAUGACACGCAAAACGCGUGCUCCGUUGAAUGGAGUUUAUCAUG: -0.754; for GGAUCUUCUCGAUCUAACAAAAAAGACAAAUCUGCCACAAAGCUUGAGAUCAUCUUCGGAUGCAGAGGCGGCAGCCUUCGGUGGCGCGAUAGCGCCAACGUUCUCAACUAUGACACGCAAAACGCGUGCUCUGUUGAAUGGAGUUUAUCAUG: -0.763; for GGAUCUUCUCGAUCUAACAAAAAAGACAAAUCUGCCACAAAGCUUGAGAGCAUCUUCAGAUGCAGAGGAGGCAGCCUUCGGGGGCGCGAUAGCGCCAACGUUCUCAACUAUGACACGCAUAACGCGUGCUCCGCUGAAUGGAGUUUAUCAUG: -1.34.
The figure for GGAUCUUCUCGAUCUAACAAAAAAGACAAAUCUGCCACAAAGCUUGAGAGCAUCUUCGGAUGCAGAGGCGGCAGCCUUCGGUGGCGCGAUAGCGCCAACGUUUUCAACUAUGACACGCAAAACGCGUGCUCCGGUGAAUGCAGUUUAUCAUG is -4.14.
The figure for GGAUCUUCUCGAUCUAACAAAAAAGACAAAUCUGCCACAAAGCUUGAGAGUAUCUUCGAAUGCAGAGGCGGCAGCCUUCGGUGGCGCGAUAGCGACAACGUUCUCAACUAUGACACGCAAAACGGGUGCUCCGUUGAAUGGAGUUUAUCAUG is -1.53; for GGAUCUUCUCGAUCUAACAAACAAGACAAAUCUGCCACAAAGCUUGAGAGCAUAUUCGGAUGCAGAGGCGGCAGCCUUCGGUGGCGCGAUAGCACCAUCGUUCUCAACUAUGACACGCAAAACGCGUGCUCCGUUGAAUGGAGUUUAUCAUG it is -1.82; for GGAUCUUCUCGAUCUACCAAAAAAGACAAAUCUGCCACAAAGCUUGAGAGCAUCUACGGAUGCAGAGGCGGCAGCCUUCGGUGGCGCGAUAGCGCCAACGUUCUCAACUAUGACACGCAAAACGCGUGCUCCGUUGAAUGGAGUUUAUCAUG it is 0.36.
In the case of GGAUCUUCUCGAUCUAACAAAAAAGACAAAUCUGCCACAAAGCUUGAGAGCAUCUUCGGAUGCAGAGGCGGCAGCCUUCGGUGGCGCGAUAGGGCCAGCGUUCUCAACUAUGACACGCAAAACGCGUGCUCCGUUGAAUGGAGUUUAUCAUG, the “polymerase ribozyme fitness (log ratio)” value is -2.91.
Turning to GGAUCUUCUCGAACUAACAGAAAAGACAAAUCUGCCACAAAGCUUGAGAGCAUCUUCGGAUGGAGAGGCGGCAGCCUUCGGUGGCGCGAUUGCGCCAACGUUCUCAACUAUGACACGCAAAACGCGUGCUCCGUUCAAUGGAGUUUAUCAUG, the “polymerase ribozyme fitness (log ratio)” value is at most -4.2.
Turning to GGAUCUUCUCGAUCUAACAAAAAAGACACAUCUGCCACAAAGCUUGAGAGCAUCAUCGGAUGCAGAGGCGGCAGCCUUCGGUGGCGCGAUAGCGCCAACGUUCUCAACUAUGACACGCAAAACGCGUGCUCCGUUGAAUGGAGUUUAUCAUG, the “polymerase ribozyme fitness (log ratio)” value was -3.74.
The figure for GGAUCUUCUCGAUCUAACAAAAAAGACAAAUCUGCCAUAAAGCUUGAGAGCAUCUUCGGAUCCAGAGGCGGCAGCCUUCGGUGGCGCGAUAGCGCCAACGUUCUCAACUAUGACACGCAAAACGCGUGCUCCGUUGAAUGGAGUUUAUCAUG is -2.41.
The figure for GGAUCUUCUCGAUCUAACAAAAAAGACAAAUCUGCCACAAAGCUUGAGAGCAUCUUCGGAUGCAGAGGCGGCGGCCUUCGGUGGCGCGAUAGCGCCAACGUUCUCCACUAUGACACGCAAAACGCGUGCUCCGUUGAAUGUAGUUUAUCAUG is -1.34; for GGAUCUUCUCGAUCUAACAAAAAAGACAAAUGUGCCACAAAGCUUGAGAGCAUCUACGGAUGCAGAGGCGGCAGCCUUCGGUGGCGCGAUAGCGCCAACGUUCUCAACUAUGACACGCAAAACGCGUGCUCCGUUGAAUGGAGUUUAUCAUG it is -4.1.
The figure for GGAUCUUCUCGAUCUAACAAAAAAGACAAAUCUGCCACAAAGCUUGAGAGCAUCAUCGAACGCAGAGGCGGCAGCCUUCGGUGGCGCGAUAGCGCCAACGUUCUCAACUAUGACACGCAAAACGCGUGCUCCGUCGAAUGGGGUUUAUCAUG is -3.84; for GGAUCUUCUCGAUCUAACAAAAAAGACAAAUCUGCCACAAAGCUUGAGAGCAUCUUCGGUUGCAGAGGCGGCAGCCUUCGGUGGCGCGAUAGCGCCAUCGUUCUCAACUAUGACACGCAAAACGCGUGCUCCGUUGAAUGGAGUUUAUCAUG it is -0.598.
On to GGAUCUUCUCGAUCGAACAAAAAAGACAAAUCUGCCACAAAGCUUGAGAGCAUCUUCGGAUGCAGAGGCGGUAGCCUUAGGUGGCGCGAUAGUUCAAACGUUCUCAACUAUGACACGCAAAACGCGUGCUCCGUUGAAUAGAGUUUAUCAUG, for which the “polymerase ribozyme fitness (log ratio)” value is at most -4.2.
The same measure for GGAUCUUCUCGAUCUAACAAAAAAGACAAAUCUGCCACAAAGCUUGACAGCAUCUUCGGAUGCAGAGGCGGCAGCCUUCGGUGGCGCGUUAGCGCCAACGUUCUCUCCUAUGACACGCAGAACGCGUGCUCCGUUGAAGGGAGUUUAUCAUG: at most -4.2.
